“And” between values parts separate entries of the source, which are not always exact repeats. Equal values may be shown once. “Also recorded” adds a separate entry of the source. Read-outs that look alike come from different tables or passages of the source.
Columns and labels:
[1] = Stopped-flow reduction of hAIF∆1-101ox by NADH (hydride transfer); assay type: biochemical; details: for k HT/Kd^NADH / k HT / Kd: pre-steady-state, 25°C, pH 7.4; for k HT: hydride transfer from NADH to FAD, aerobic, 50 mM potassium phosphate; for Kd: transient hAIF∆1-101ox:NADH complex, read-out: K d ^NADH
Experimental: A SX18.MV stopped-flow spectrophotometer (Applied Photophysics Ltd., Surrey, UK), interfaced with the ProData-SX software and a photodiode array detector, was used to investigate the fast kinetic reduction of the hAIF variants by the NADH coenzyme. Samples of ~10 μM hAIF∆1-101ox were mixed with increasing concentrations of NADH (0.03-10 mM) under aerobic conditions in 50 mM potassium phosphate, pH 7.4, at 25 °C. The enzyme and NADH concentrations are the final ones obtained after mixing equal volumes of substrate and enzyme. Observed rate constants for the hydride transfer (HT) event (kobs) were calculated by global analysis and numerical integration methods (simultaneously using all spectral data in the 400-800 nm region along time evolution). A single-step model (A→B) best fitted to describe the overall reaction at all NADH concentrations assayed. Averaged kobs values at each NADH concentration were then fitted to the equation that describes the formation of an enzyme:substrate complex prior to the HT event: (3) kobs=kHTNADH/KdNADH+NADH+krev, where kHT is the limiting rate constant for HT from the pyridine nucleotide coenzyme to the FAD cofactor of hAIF, Kd^NADH is the dissociation constant of the transient hAIF∆1-101ox:NADH complex, and krev is the reaction constant for a potential overall reverse process.

[2] = for T m CTC ^FAD − Tm^FAD: CTC state relative to oxidized state of the same variant; for ΔTm^FAD: variant relative to WT; for T m ^FAD: ~2 μM protein, 50 mM potassium phosphate
Experimental: Thermal denaturation curves were followed by changes in the FAD fluorescence emission upon its release from the protein by sample excitation at 450 nm. Curves were monitored from 10 °C to 90 °C with scan rates of 1°C/min, both in the absence and presence of a 100-fold excess of NADH. The curves for each variant were roughly normalized to values between 0 and 1 and globally fitted to a two-step process describing a single transition unfolding equilibrium (native (N)↔unfolded (U)) by using the following equation [23]: (1) Sobs=SN+mNT+SU+mUTe^−ΔG/RT/1+e^−ΔG/RT, in which Sobs is the measured protein signal at a given temperature (T). SN and SU are intercept at 0 K with the y-axis of the linear extrapolation for the native and unfolded pre- and posttransition regions, respectively, while mN and mU are the corresponding slopes. The stabilization Gibbs energy depends on temperature according to ΔG = ΔH(1 − 1/Tm) + ΔCP(T − Tm − Tln(T/Tm)), where ΔH is the unfolding enthalpy, Tm is the midtransition temperature, ΔCP is the unfolding heat capacity change, and R is the ideal gas constant.

[3] = Stopped-flow CTC formation on mixing photoreduced hAIF∆1-101 with NAD+; assay type: biochemical; details: for k CTC: hAIF∆1-101phrd variants mixed with NAD+; for k CTC / k CTC/Kd^NAD+ / Kd: anaerobic, 25°C, pH 7.4; for k CTC/Kd^NAD+: hAIF∆1-101phrd variants; for decrease in Kd^NAD+ relative to WT: hAIF∆1-101phrd with NAD+; for Kd: transient hAIF∆1-101phrd:NAD+ complex, read-out: K d ^NAD+
Experimental: Stopped-flow spectrophotometry was also used to evaluate the rate constants of CTC formation when mixing photoreduced hAIF∆1-101 (hAIF∆1-101phrd) with increasing concentrations of NAD^+ (0.125-5 mM) under anaerobic conditions. hAIF∆1-101phrd samples were obtained by photoreduction in the presence of 5 μM methyl viologen, 3 μM 5-deazariboflavin, and 20 mM EDTA. The assays were performed at 25 °C in 50 mM potassium phosphate, pH 7.4, under anaerobic conditions (obtained by several cycles of vacuum application and bubbling with O2 free argon). Data were global fitted to a single step model (A→B), and kobs were determined at the different NAD^+ concentrations assayed. These values were then fitted to the equation that describes the formation of a transient hAIF∆1-101phrd:NAD^+ complex prior to the CTC stabilization: (4) kobs=kCTCNAD^+/KdNAD++NAD^+, in which kCTC is the limiting rate constant for the rearrangement of the encounter complex to form the CTC, and Kd^NAD+ is the dissociation constant for the mentioned transient encounter complex.

[4] = Steady-state DCPIP-dependent diaphorase (NADH oxidase) activity; assay type: biochemical; details: for K m ^NADH / k cat: steady-state, NADH donor, 95 μM DCPIP acceptor, 25°C, 50 mM potassium phosphate, pH 7.4 (table footnote); for k cat: n = 3, mean ± SD
Excerpt: […] When saturation profiles on the pyridine nucleotide concentration were observed, kinetic constants were estimated by fitting initial reaction rates at different coenzyme concentrations to the Michaelis-Menten equation: (2) ν/e=kcat NADH/KmNADH+NADH,ν/e=kcat/KmNADHNADH/1+kcat/KmNADHNADH/kcat, where v stands for the initial velocity, e is the enzyme concentration, Km^NADH is the Michaelis constant for the enzyme-NADH complex, kcat is the turnover number of the enzyme, and kcat/Km^NADH is the enzyme catalytic efficiency.

[5] = Reactivity of the CTC towards molecular oxygen (CTC half-life); assay type: biochemical; details: 25°C, air saturated 50 mM potassium phosphate, pH 7.4
Experimental: The reactivity of the CTC towards molecular oxygen was monitored by full reduction of hAIF∆1-101 samples with NADH (1.5-fold the concentration of the protein) in 50 mM phosphate buffer, pH 7.4, and following their reoxidation in a Cary 100 spectrophotometer (Agilent, Santa Clara, CA). Absorption spectra were recorded at 25 °C until full oxidation of the flavin cofactor was achieved. For each time, the percent remaining of CTC versus reoxidation by molecular oxygen was estimated as ΔAt/ΔAmax, where ΔAmax is the difference between the minimum and the maximum absorbance at 700 nm, and ΔAt is the difference of each value at 700nm minus the minimum absorbance at 700 nm. The CTC half-life is the time at which 50% of CTC still remains.

[6] = biological target: dsDNA; experiment: ITC binary interaction with dsDNA; assay type: binding; details: for Kd: oxidized hAIF∆1-101 titrated with 15-bp dsDNA, 25°C, pH 7.4
Experimental: (§1) ITC assays were carried out using an Auto-iTC200 (MicroCal, Malvern-Panalytical, Malvern, UK) thermostated at 25 °C. Typically, […] protein partner and dsDNA samples—prepared as described below—were used to titrate ~10 μM hAIF∆1-101 variants. All solutions were degassed at 15°C for 1 min before each assay. A sequence of 2 μL injections of titrant solution every 150 s was programmed, and the stirring speed was set to 750 rpm. The association constant (Ka), the enthalpy of binding (ΔH), and the binding stoichiometry (N) were estimated through nonlinear least-squares regression of the experimental data employing a single-ligand binding site model implemented in Origin 7.0 (OriginLab, Northampton, MA). The dissociation constant (Kd), the free energy change (ΔG), and the entropy change (ΔS) were obtained from basic thermodynamic relationships.
Since hAIF binds DNA unspecifically, a 0.5 mM dsDNA sample was prepared from 1 mM solutions of HPLC-purified forward and a reverse complementary 15-bp oligonucleotides (5′- GGT TAG TTA TGC GCG -3′; randomly designed) synthetized by Integrated DNA Technologies. The pair of oligonucleotides was mixed at an equimolar ratio and annealed by heating 1 min at 99°C and performing a 3 h temperature scanning from 95 to 25°C, decreasing 1°C each 3 min. 0.5 mM dsDNA stock solutions were obtained.

[7] = biological target: T1, CHCHD4 (Homo sapiens, UniProt Q8N4Q1); experiment: ITC binary interaction with CHCHD4; assay type: binding; details: 25°C, pH 7.4
T1 construct: His6 (N); made in house; host or cells: E. coli C41 (DE3)
T1 sequence (Q8N4Q1 1-142): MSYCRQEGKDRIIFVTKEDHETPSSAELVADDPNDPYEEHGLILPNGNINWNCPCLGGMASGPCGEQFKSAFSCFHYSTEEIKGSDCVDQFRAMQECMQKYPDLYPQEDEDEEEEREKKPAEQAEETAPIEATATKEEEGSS
Experimental: as §1

[8] = biological target: T2, CypA (Homo sapiens, UniProt P62937); experiment: ITC binary interaction with CypA; assay type: binding; details: oxidized hAIF∆1-101 titrated with CypA, 25°C, pH 7.4
T2 construct: His6 (N); made in house; host or cells: E. coli C41 (DE3)
T2 sequence (P62937 whole entry): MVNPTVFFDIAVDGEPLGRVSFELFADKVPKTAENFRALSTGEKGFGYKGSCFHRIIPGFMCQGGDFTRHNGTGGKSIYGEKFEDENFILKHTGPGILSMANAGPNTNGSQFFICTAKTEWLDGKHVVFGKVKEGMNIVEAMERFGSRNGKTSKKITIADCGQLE
Experimental: as §1

[9] = CTC hAIF∆1-101rd:NAD^+, 100-fold excess NADH
[10] = CTC hAIF∆1-101rd:NAD^+, 100-fold excess NADH, pH 7.4, ionic strength 150 mM
[11] = hAIF∆1-101ox, pH 7.4, ionic strength 150 mM
[12] = steady-state DCPIP diaphorase reaction
[13] = CTC form (premixed with NADH 1:100) titrated with CHCHD4, ITC, read-out: K d
[14] = CTC form titrated with CHCHD4, ITC
[15] = oxidized hAIF∆1-101 titrated with CHCHD4, ITC

Substance	k HT/Kd^NADH [1]	k HT [1]	Kd [1]	ΔH (unfolding enthalpy) [2, 9]	T m CTC ^FAD [2, 10]	T m CTC ^FAD − Tm^FAD [2]	ΔH (unfolding enthalpy) [2, 11]	ΔTm^FAD ([2]; hAIF∆1-101ox)	T m ^FAD [2, 11]	k CTC [3]	k CTC/Kd^NAD+ [3]	decrease in Kd^NAD+ relative to WT [3]	Kd [3]	increase in turnover rate relative to WT [4, 12]	K m ^NADH [4]	k cat [4]	CTC half-life versus reoxidation by O2 [5]	Kd [6]	Kd [7, 13]	ΔG [7, 14]	also measured
W196L: W196L site-directed mutant of hAIF∆1-101	21 ± 3 s⁻¹ mM⁻¹	36 ± 1 s⁻¹	1.72 ± 0.21 mM	159 ± 4 kcal/mol	324 ± 1 K	−2 ± 2 K	118 ± 3 kcal/mol	−11 ± 2 K	326 ± 1 K	29 ± 2 s⁻¹	67 ± 18 s⁻¹ mM⁻¹	~ 5 fold	433 ± 11 µM	~ 3 fold	187 ± 18 µM	2.8 ± 0.1 s⁻¹	32 min				ΔTm CTC^FAD ([2]; CTC state, variant relative to WT CTC): 0 K; decrease in Km^NADH relative to WT [4, 12]: ~ 3 fold; efficiency oxidizing NADH relative to WT [4, 12]: ~ 8 times
W196A: W196A site-directed mutant of hAIF∆1-101; ox = oxidized, CTC = charge transfer complex with NAD+	117 ± 5.3 s⁻¹ mM⁻¹	126 ± 1 s⁻¹	1.07 ± 0.04 mM	170 ± 4 kcal/mol	326 ± 1 K	0 K	103 ± 3 kcal/mol	−11 ± 2 K	326 ± 1 K	30 ± 1 s⁻¹	76 ± 10 s⁻¹ mM⁻¹	~ 5 fold	394 ± 50 µM	~ 5 fold	25 ± 4 µM	4.3 ± 0.2 s⁻¹	62 min	5.8 µM	500 nM	-8.3 kcal/mol	Kd for DNA higher than WT ([6]; hAIFΔ1−101ox, binary complexes): ~ 4 fold; higher affinity for the NADH substrate relative to WT ([1]; stopped-flow, NADH): ~ 5 fold; ΔH [7, 14]: -5.9 kcal/mol; Kd ([7]; oxidized hAIF∆1-101 titrated with CHCHD4, ITC, 50 mM potassium phosphate, listed as W196Aox, read-out: K d): ~400 nM and 400 nM; -TΔS [7, 15]: -18.0 kcal/mol; ΔG [7, 15]: -8.4 kcal/mol; ΔH [7, 15]: 9.6 kcal/mol; -TΔS [8]: -34.9 kcal/mol; ΔG [8]: -7.6 kcal/mol; ΔH [8]: 27.3 kcal/mol
WT: wild-type human apoptosis-inducing factor, soluble form hAIF∆1-101 (UniProtKB O95831); ox = oxidized, CTC = NADH-reduced charge transfer complex	0.4 ± 0.1 s⁻¹ mM⁻¹	1.5 ± 0.1 s⁻¹	4.09 ± 0.3 mM	150 ± 4 kcal/mol	324 ± 1 K	−13 ± 2 K	128 ± 3 kcal/mol		337 ± 1 K	45 ± 2 s⁻¹	22 ± 3 s⁻¹ mM⁻¹		2080 ± 250 µM		495 ± 170 µM	0.9 ± 0.1 s⁻¹	72 min	1.6 µM	200 nM	-8.7 kcal/mol	-TΔS [7, 14]: 11.4 kcal/mol; ΔH [7, 14]: -20.1 kcal/mol; Kd ([7]; oxidized hAIF∆1-101 titrated with CHCHD4, ITC, 50 mM potassium phosphate, listed as WTox): heat exchange was not observed; also recorded: No detected binding; -TΔS [8]: 17.2 kcal/mol; ΔG [8]: -7.3 kcal/mol; ΔH [8]: -24.5 kcal/mol
